PMC5449386

Tests used:
Assay in all cases: controlled Fab-arm exchange read by hydrophobic interaction chromatography; equimolar parental antibodies, 1 mg/mL each, 75 mM 2-MEA, 5 h at 31 °C; 2-MEA removed, overnight at 4 °C for re-oxidation; percent bispecific product from HIC peak areas
[1] = target: IgG1-CH3(mmG2a)-K409R parental antibody with the R411T mutation (7D8-derived) (human | mouse)
[2] = target: IgG1-CH3(mmG2a)-T370K-K409R parental antibody (7D8-derived) (human | mouse)
[3] = target: mmIgG2b-K409R parental antibody (7D8-derived) (human | mouse)
Chain of mmIgG2b-K409R parental antibody (7D8-derived) (human | mouse) (heavy, as listed by the source, chain 1 of 2): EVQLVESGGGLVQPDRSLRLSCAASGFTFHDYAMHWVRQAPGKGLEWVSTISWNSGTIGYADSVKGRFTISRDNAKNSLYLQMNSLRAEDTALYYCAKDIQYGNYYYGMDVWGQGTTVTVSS
Chain of mmIgG2b-K409R parental antibody (7D8-derived) (human | mouse) (light, as listed by the source, chain 2 of 2): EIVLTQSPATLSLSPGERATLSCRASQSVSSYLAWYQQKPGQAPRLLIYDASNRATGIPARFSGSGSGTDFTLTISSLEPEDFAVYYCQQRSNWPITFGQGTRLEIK

Chain of IgG1-CH3(mmG2a)-T370K-K409R parental antibody (7D8-derived) (human | mouse) (heavy, as listed by the source, chain 1 of 2): as the sequence (heavy, as listed by the source, chain 1 of 2) above
Chain of IgG1-CH3(mmG2a)-T370K-K409R parental antibody (7D8-derived) (human | mouse) (light, as listed by the source, chain 2 of 2): as the sequence (light, as listed by the source, chain 2 of 2) above
Chain of IgG1-CH3(mmG2a)-K409R parental antibody with the R411T mutation (7D8-derived) (human | mouse) (heavy, as listed by the source, chain 1 of 2): as the sequence (heavy, as listed by the source, chain 1 of 2) above
Chain of IgG1-CH3(mmG2a)-K409R parental antibody with the R411T mutation (7D8-derived) (human | mouse) (light, as listed by the source, chain 2 of 2): as the sequence (light, as listed by the source, chain 2 of 2) above

| cFAE efficiency (percent bispecific product by HIC) [1] | cFAE efficiency (percent bispecific product by HIC) [2] | cFAE efficiency (percent bispecific product by HIC) [3] | Substance |
| --- | --- | --- | --- |
| 61% | > 90% | – | IgG1-CH3(mmG2a)-F405L-R411T parental antibody (2F8-derived) |
| – | – | 80% | mmIgG2b-F405L parental antibody (2F8-derived) |
| – | > 90% | – | IgG1-CH3(mmG2a)-F405L parental antibody (2F8-derived) |
| – | 76% | – | IgG1-CH3(mmG2a)-F405L parental antibody with the T370K mutation (2F8-derived) |
